The first assay has as its target HKU1 isolate N1 (genotype A) RBD, wildtype, biotinylated (avi tag) (UniProt Q5MQD0). The assay is described as follows: BLI. The conditions noted are these: 100 nM TMPRSS2; area under the binding response curve normalised to human WT TMPRSS2, not to the mouse parent; parent: est. 19; read off a plot.
With “S441A House Mouse TMPRSS2 ectodomain (DS mutation, SUMO, N249 glycan) S412N”, the response was 38 % WT.

Still in this assay, the particulars now being: 100 nM TMPRSS2; area under the binding response curve normalised to human WT TMPRSS2, not to the mouse parent; read off a plot.
House Mouse TMPRSS2 ectodomain S441A: the response was 19 % WT.

The assay is the same for the next values; noted with them: 100 nM TMPRSS2; area under the binding response curve; Not activated: uncleaved S441A TMPRSS2; read off a plot.
In the case of “human TMPRSS2 ectodomain harboring S441, the DS mutation, SUMO and the N249 glycan (self-activating; wildtype of Figure 4C) (from UniProt O15393) S441A”, the percent of parent amounted to 1.4 % WT.

The same assay, now with this note: 100 nM TMPRSS2; area under the binding response curve; cleaved (activated by enterokinase); read off a plot.
Turning to “human TMPRSS2 ectodomain harboring S441, the DS mutation, SUMO and the N249 glycan (self-activating; wildtype of Figure 4C) (from UniProt O15393) S441A”, the percent of parent came out at 100 % WT.

The assay is the same for the next values; noted with them: 100 nM TMPRSS2; area under the binding response curve; read off a plot.
On to “human TMPRSS2 ectodomain harboring S441, the DS mutation, SUMO and the N249 glycan (self-activating; wildtype of Figure 4C) (from UniProt O15393) S412N”, for which the percent of parent was 110 % WT.

For “human TMPRSS2 ectodomain harboring S441, the DS mutation, SUMO and the N249 glycan (self-activating; wildtype of Figure 4C) (from UniProt O15393) S463T”, the percent of parent amounted to 2 % WT.

With “human TMPRSS2 ectodomain harboring S441, the DS mutation, SUMO and the N249 glycan (self-activating; wildtype of Figure 4C) (from UniProt O15393) V415I”, the percent of parent was 71 % WT.

With “human TMPRSS2 ectodomain harboring S441, the DS mutation, SUMO and the N249 glycan (self-activating; wildtype of Figure 4C) (from UniProt O15393) R470K”, the percent of parent came out at 1.6 % WT.

For the substance “human TMPRSS2 ectodomain harboring S441, the DS mutation, SUMO and the N249 glycan (self-activating; wildtype of Figure 4C) (from UniProt O15393) L419M”, the percent of parent turned out to be 51 % WT.

On to “human TMPRSS2 ectodomain harboring S441, the DS mutation, SUMO and the N249 glycan (self-activating; wildtype of Figure 4C) (from UniProt O15393) S463Y”, for which the percent of parent turned out to be 1.5 % WT.

Take “human TMPRSS2 ectodomain harboring S441, the DS mutation, SUMO and the N249 glycan (self-activating; wildtype of Figure 4C) (from UniProt O15393) Y469N”: the percent of parent was 10 % WT.

As for “human TMPRSS2 ectodomain harboring S441, the DS mutation, SUMO and the N249 glycan (self-activating; wildtype of Figure 4C) (from UniProt O15393) S412N; Y469L”, the percent of parent turned out to be 81 % WT.

For the substance “human TMPRSS2 ectodomain harboring S441, the DS mutation, SUMO and the N249 glycan (self-activating; wildtype of Figure 4C) (from UniProt O15393) Y469L”, the percent of parent was 130 % WT.

As to “human TMPRSS2 ectodomain harboring S441, the DS mutation, SUMO and the N249 glycan (self-activating; wildtype of Figure 4C) (from UniProt O15393) R413K”, the percent of parent worked out at 77 % WT.

As to “human TMPRSS2 ectodomain harboring S441, the DS mutation, SUMO and the N249 glycan (self-activating; wildtype of Figure 4C) (from UniProt O15393) S463F”, the percent of parent was 1.6 % WT.

With “human TMPRSS2 ectodomain harboring S441, the DS mutation, SUMO and the N249 glycan (self-activating; wildtype of Figure 4C) (from UniProt O15393) K340D”, the percent of parent was found to be 57 % WT.

On to “human TMPRSS2 ectodomain harboring S441, the DS mutation, SUMO and the N249 glycan (self-activating; wildtype of Figure 4C) (from UniProt O15393) Y414R”, for which the percent of parent worked out at 3.9 % WT.

Turning to “human TMPRSS2 ectodomain harboring S441, the DS mutation, SUMO and the N249 glycan (self-activating; wildtype of Figure 4C) (from UniProt O15393) A468P”, the percent of parent is 95 % WT.

For the substance “human TMPRSS2 ectodomain harboring S441, the DS mutation, SUMO and the N249 glycan (self-activating; wildtype of Figure 4C) (from UniProt O15393) L419A”, the percent of parent came to 4.1 % WT.

With “human TMPRSS2 ectodomain harboring S441, the DS mutation, SUMO and the N249 glycan (self-activating; wildtype of Figure 4C) (from UniProt O15393) R409K”, the percent of parent was 81 % WT.

“human TMPRSS2 ectodomain harboring S441, the DS mutation, SUMO and the N249 glycan (self-activating; wildtype of Figure 4C) (from UniProt O15393) Y414L”: the percent of parent was 2.5 % WT.

On to “human TMPRSS2 ectodomain harboring S441, the DS mutation, SUMO and the N249 glycan (self-activating; wildtype of Figure 4C) (from UniProt O15393) R413V”, for which the percent of parent worked out at 85 % WT.

On to “human TMPRSS2 ectodomain harboring S441, the DS mutation, SUMO and the N249 glycan (self-activating; wildtype of Figure 4C) (from UniProt O15393) T341S”, for which the percent of parent stood at 85 % WT.

Take “human TMPRSS2 ectodomain harboring S441, the DS mutation, SUMO and the N249 glycan (self-activating; wildtype of Figure 4C) (from UniProt O15393) D417N”: the percent of parent came to 15 % WT.

With “human TMPRSS2 ectodomain harboring S441, the DS mutation, SUMO and the N249 glycan (self-activating; wildtype of Figure 4C) (from UniProt O15393) Y414S”, the percent of parent worked out at 28 % WT.

As to “human TMPRSS2 ectodomain harboring S441, the DS mutation, SUMO and the N249 glycan (self-activating; wildtype of Figure 4C) (from UniProt O15393) R409T”, the percent of parent worked out at 79 % WT.

Still in this assay, the particulars now being: 100 nM TMPRSS2 mutants for 200 seconds followed by dissociation for 400 seconds; RBD on SA biosensors; value read at 200 s; parent: est. 0.50; read off a plot.
Consider “human TMPRSS2 ectodomain with S441 and the C379-T447C disulfide bond (wildtype of Figure 2F) (from UniProt O15393) W461A”, for which the response is 0 nm.

On to “human TMPRSS2 ectodomain with S441 and the C379-T447C disulfide bond (wildtype of Figure 2F) (from UniProt O15393) Y414A”, for which the response was determined as 0.1 nm.

For the substance “human TMPRSS2 ectodomain with S441 and the C379-T447C disulfide bond (wildtype of Figure 2F) (from UniProt O15393) R470A”, the response was determined as 0.14 nm.

Consider “human TMPRSS2 ectodomain with S441 and the C379-T447C disulfide bond (wildtype of Figure 2F) (from UniProt O15393) Y469A”, for which the response came out at 0.36 nm.

The next assay addresses cleaved human TMPRSS2 ectodomain harboring the S441A residue substitution and a C379-T447C disulfide bond (UniProt O15393). The assay is described as follows: BLI. The conditions noted are these: 100 nM TMPRSS2 S441A for 200 seconds followed by dissociation for 400 seconds; RBD on SA biosensors; value read at 200 s; parent: est. 0.53; read off a plot.
In the case of “HKU1 isolate N1 (genotype A) RBD, wildtype, biotinylated (avi tag) (from UniProt Q5MQD0) Y528A”, the response came out at 0.11 nm.

For “HKU1 isolate N1 (genotype A) RBD, wildtype, biotinylated (avi tag) (from UniProt Q5MQD0) R517A”, the response worked out at 0.022 nm.

With “HKU1 isolate N1 (genotype A) RBD, wildtype, biotinylated (avi tag) (from UniProt Q5MQD0) H488A”, the response was 0.18 nm.

In the case of “HKU1 isolate N1 (genotype A) RBD, wildtype, biotinylated (avi tag) (from UniProt Q5MQD0) V509A”, the response came out at 0.1 nm.

As to “HKU1 isolate N1 (genotype A) RBD, wildtype, biotinylated (avi tag) (from UniProt Q5MQD0) W515A”, the response came out at 0 nm.

Consider “HKU1 isolate N1 (genotype A) RBD, wildtype, biotinylated (avi tag) (from UniProt Q5MQD0) L510A”, for which the response was determined as 0 nm.

As for “HKU1 isolate N1 (genotype A) RBD, wildtype, biotinylated (avi tag) (from UniProt Q5MQD0) E505A”, the response was 0.36 nm.

Another assay deals with human TMPRSS2 ectodomain harboring S441, the DS mutation, SUMO and the N249 glycan (self-activating; wildtype of Figure 4C) (human) (UniProt O15393). The experiment in a line: enzyme inhibition kinetics (peptidase assay, competitive inhibition fit); 5 nM TMPRSS2 with serial dilutions of Boc-QAR-AMC substrate in the presence of 215, 72 or 24 nM HKU1 RBD, 22 °C; TMPRSS2 incubated 2 minutes with the RBD before substrate.
Settings: not given
With “HKU1 isolate N1 (genotype A) RBD, wildtype, without avi tag (from UniProt Q5MQD0 320-614) (domain or fragment)”, the Ki is 0.038 µM.

For the origin of these results see paper PMC12854727.
